Patent US20190345206A1 (MOMENTA PHARMACEUTICALS, published 2019)
Residue numbers refer to the chain shown, from its start. In names and notes the source's numbering stands. Blank lines part the entries; values can stand above or below the binder they belong to.

Experiments:
FcγRIIIa V158 = target: T1, FcγRIIIa V158 (UniProt P08637 17-254, limits assumed); assay: cell-based TR-FRET competition assay (CISBIO kit), FcγRIIIa V158 cells
T1 construct: whole, on cells; V158 is the allotype as printed (mature numbering); also called CD16a
Experimental: (§1) A cell-based binding assay was utilized to confirm that the amino acid modifications at positions I253, e.g., I253A, and R292, e.g., R292P, were specific to the intended receptors, e.g., reduced binding affinity to the FcRn receptor and FcγRIIb receptor, respectively. Relative binding of Fc constructs and controls to Fc gamma receptors (FcγRs) was measured using cell-based homogeneous time-resolved fluorescence resonance energy transfer (TR-FRET) competition assays (CISBIO®) kits for FcγRI, FcγRIIa H131, FcγRIIb, and FcγRIIIa V158. Assay reagents were prepared according to the manufacturer's instructions. A 10-point, 3-fold serial dilution series, plus one blank per sample, was generated using an automated liquid handler (Freedom EVOware 150, TECAN®). Assay plates were read on a PHERAstar fluorescent reader (BMG Labtech GmbH) at 665 and 620 nm. An IgG1 sample was used as a control.

FcγRI = target: T2, FcγRI (UniProt P12314 16-374, limits assumed); assay: cell-based TR-FRET competition assay (CISBIO kit), FcγRI cells
T2 construct: whole, on cells; also called CD64
Experimental: as §1

Recombinant human FcRn = target: T3, Recombinant human FcRn (human, UniProt P55899 24-297; P61769 21-119, limits assumed); assay: SPR at pH 6.0; human FcRn in solution over Fc construct captured by goat anti-human IgG
T3 construct: also called neonatal Fc receptor
Source text: To assess the impact of the amino acid modifications at position I253, e.g., I253A, and R292, e.g., R292P, on FcRn binding a surface plasmon resonance (SPR) binding experiment was designed to measure the affinity and normalized binding level of solution-phase human FcRn to sensor-bound Fc constructs at pH 6.0. A goat anti-human IgG was immobilized on reference and test sensor surfaces using amine coupling chemistry. Fc constructs were captured on the test sensor surface. Recombinant human FcRn was flowed over the sensor surface in a dilution series with a top concentration of 1.0 μM. The sensor surface was regenerated at the end of each cycle with 10 mM glycine pH 1.7. Double-reference subtracted sensorgrams were subjected to equilibrium binding analysis; the maximum binding level (RMax) and the equilibrium dissociation constant (KD) were estimated. The normalized maximum binding level was calculated by dividing the RMax by the FC-construct capture level. Construct 16 was captured at the same level as construct 4, […] (FIG. 20).

T2 sequence (P12314 16-374 limits assumed): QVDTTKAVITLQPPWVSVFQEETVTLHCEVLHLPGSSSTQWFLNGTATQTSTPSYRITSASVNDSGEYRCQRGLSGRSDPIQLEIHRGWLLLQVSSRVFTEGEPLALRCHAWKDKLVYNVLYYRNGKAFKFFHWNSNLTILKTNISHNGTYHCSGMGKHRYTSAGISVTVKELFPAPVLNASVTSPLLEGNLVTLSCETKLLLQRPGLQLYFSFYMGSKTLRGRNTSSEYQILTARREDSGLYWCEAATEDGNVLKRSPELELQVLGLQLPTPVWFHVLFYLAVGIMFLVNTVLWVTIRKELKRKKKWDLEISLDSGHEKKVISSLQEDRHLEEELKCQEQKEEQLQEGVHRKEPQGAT
T1 sequence (P08637 17-254 F176V limits assumed): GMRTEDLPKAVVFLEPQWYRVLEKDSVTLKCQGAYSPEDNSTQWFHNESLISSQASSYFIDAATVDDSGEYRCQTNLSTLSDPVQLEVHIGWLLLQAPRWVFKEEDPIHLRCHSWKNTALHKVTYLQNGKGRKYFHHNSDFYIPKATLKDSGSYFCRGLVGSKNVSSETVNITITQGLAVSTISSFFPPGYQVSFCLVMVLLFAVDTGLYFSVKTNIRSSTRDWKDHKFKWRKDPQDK

binding result (FcγRIIIa V158): binds | binding result (FcγRI): binds
B1: Fc construct 18 (other)
chain 1: DKTHTCPPCPAPELLGGPSVFLFPPKPKDTLMASRTPEVTCVVVDVSHEDPEVKFNWYVDGVEVHNAKTKPPEEQYNSTYRVVSVLTVLHQDWLNGKEYKCKVSNKALPAPIEKTISKAKGQPREPQVYTLPPCRDKLTKNQVSLWCLVKGFYPSDIAVEWESNGQPENNYKTTPPVLDSDGSFFLYSKLTVDKSRWQQGNVFSCSVMHEALHNHYTQKSLSLSPGKGGGGGGGGGGGGGGGGGGGGDKTHTCPPCPAPELLGGPSVFLFPPKPKDTLMISRTPEVTCVVVDVSHEDPEVKFNWYVDGVEVHNAKTKPPEEQYNSTYRVVSVLTVLHQDWLNGKEYKCKVSNKALPAPIEKTISKAKGQPREPQVYTLPPSRDELTKNQVSLTCLVKGFYPSDIAVEWESNGQPENNYKTTPPVLKSDGSFFLYSDLTVDKSRWQQGNVFSCSVMHEALHNHYTQKSLSLSPG
chain 2: DKTHTCPPCPAPELLGGPSVFLFPPKPKDTLMASRTPEVTCVVVDVSHEDPEVKFNWYVDGVEVHNAKTKPPEEQYNSTYRVVSVLTVLHQDWLNGKEYKCKVSNKALPAPIEKTISKAKGQPREPQVCTLPPSRDELTKNQVSLSCAVDGFYPSDIAVEWESNGQPENNYKTTPPVLDSDGSFFLVSKLTVDKSRWQQGNVFSCSVMHEALHNHYTQKSLSLSPG
notes: Construct 4 with R292P in all three Fc domains and I253A in the two N-terminal Fc domains; also called Q1

B2: Fc construct 19 (other)
chain 1: B1 chain 1 with I280A
chain 2: B1 chain 2
notes: Construct 4 with R292P and I253A in all three Fc domains; also called Q2
binding result (Recombinant human FcRn): no binding (tested: top concentration of 1.0 µM)
